In general, EC50 (read off the curve) refers to the concentration needed to bring the measured effect to its halfway point.

In test [1] the target is Marburg virus Musoke GP on rVSV pseudotype (VSV-MARV Musoke GP) (Marburg virus, Musoke strain) (UniProt P35253).
For test [2], the target named is Marburg virus Angola GP on rVSV pseudotype (Marburg virus, Angola strain) (UniProt Q1PD50).
Test [3] concerns the target RAVV GP on rVSV pseudotype (VSV-MARV RAVV GP) (Ravn virus) (UniProt Q1PDC7).
Test [4] concerns the target T1, Marburg virus Musoke GP on rVSV pseudotype (VSV-MARV Musoke GP) (Marburg virus, Musoke strain, UniProt P35253 19-681).
T1 sequence: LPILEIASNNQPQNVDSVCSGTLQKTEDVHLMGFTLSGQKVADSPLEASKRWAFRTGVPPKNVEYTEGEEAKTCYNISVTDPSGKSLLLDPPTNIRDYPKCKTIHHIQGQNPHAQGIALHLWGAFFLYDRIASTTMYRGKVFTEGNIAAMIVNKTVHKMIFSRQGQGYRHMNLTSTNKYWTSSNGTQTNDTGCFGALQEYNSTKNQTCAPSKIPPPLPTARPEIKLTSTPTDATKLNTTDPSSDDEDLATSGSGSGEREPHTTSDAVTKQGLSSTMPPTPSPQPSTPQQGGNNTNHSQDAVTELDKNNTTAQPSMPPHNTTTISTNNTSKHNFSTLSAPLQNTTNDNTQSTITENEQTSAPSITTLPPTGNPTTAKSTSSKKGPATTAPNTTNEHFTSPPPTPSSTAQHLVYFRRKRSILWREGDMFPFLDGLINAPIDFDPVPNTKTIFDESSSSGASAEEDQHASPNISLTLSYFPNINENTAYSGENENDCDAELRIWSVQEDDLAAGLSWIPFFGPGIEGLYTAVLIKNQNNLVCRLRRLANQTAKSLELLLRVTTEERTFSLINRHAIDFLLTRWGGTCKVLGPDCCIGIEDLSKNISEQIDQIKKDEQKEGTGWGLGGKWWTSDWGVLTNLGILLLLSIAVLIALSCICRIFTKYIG
Kind of test: cell-based or functional assay.

Take MR191 (antibody): the NT50 in test [1] amounted to 2.77 µg/mL; in test [2], 3.81 µg/mL; in test [3], 7 µg/mL.

B1: R217 (antibody, V domains shown)
VH: QVQLQESGPGLVKPSETLSLTCAVSGASISSNWWNWIRQPPGRGLEWLGEIYGYSGSTSYNPYLKSRVTISKDASRNQISLKLNAVTAADTAVYYCARDPLNQDAFDFWGQGLRVTVSS
VL: QSALTQPPSVSGSPGQSVTISCTGTSSDIGGYDYVSWYQHHPGKAPKLMIYDVNERPAGVSDRFSGSKSGNTASLTISGLQAEDEADYFCSSYAGRKTLLFGGGTRLTVL
Consider B1, for which, in test [4], the 50% effective concentration (EC50 (read off the curve)) is around 0.3 µg/mL.

Source of the values: US20230235029A1 (INTEGRATED BIOTHERAPEUTICS, published 2023).
